Measurements as given in the supplement of paper PMC7877785.
± gives the uncertainty stated by the source.

Assay: self-splicing fitness, log relative to wild type (ln ratio); higher = more splicing; Tetrahymena group I intron in knt gene, E. coli kanamycin selection, DiMSum; sequences stand for … in CUCUCU…GGAGGGAAAAGUUAUCAGGCAUGCACCUGGUAGCUAGUCUUUAAACCAAUAGAUUGCAUCGGUUUAAAAGGCAAGACCGUCAAAUUGCGGGAAAGGGGUCAACAGCCGUUCAGUACCAAGUCUCAGGGGAAACUUUGAGAUGGCCUUGCAAAGGGUAUGGUAAUAAGCUGACGGACAUGGUCCUAACCACGCAGCCAAGUCCUAAGUCAACAGAUCUUCUGUUGAUAUGGAUGCAGUUCACAGACUAAAUGUCGGUCGGGGAAGAUGUAUUCUUCUCAUAAGAUAUAGUCGGACCUCUCCUUAAUGGGAGCUAGCGGAUGAAGUGAUGCAACACUGGAGCCGCUGGGAACUAAUUUGUAUGCGAAAGUAUAUUGAUUAGUUUUGGAGUACUCGUGGUCG
Outline: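 Fitness was computed with DiMSum as the error-weighted combination of replicate fold changes, kanamycin versus none, each normalised to wild type. The library randomised all eight intron nucleotides of the P1ex region, with the intron placed in the knt kanamycin-resistance gene on pET-22b(+) in E. coli BL21(DE3). Six replicate transformations were grown overnight at 37°C or 30°C on LB agar with or without 25 μg/mL kanamycin, plus 100 μg/mL carbenicillin, 50 μM IPTG and 0.2% rhamnose. Pooled colonies were amplicon-sequenced on an Illumina HiSeq 2500.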

Sequence: AAUUAGCAAUAUUACGUAGC
- self-splicing fitness (ln) (30 °C): -3.24 ± 0.25
- self-splicing fitness (ln) (37 °C): -1.08 ± 0.32

Sequence: UACCAGCAAUAUUACGAAGG
- self-splicing fitness (ln) (30 °C): -2.22 ± 0.11
- self-splicing fitness (ln) (37 °C): -0.865 ± 0.12

Sequence: GGGCAGCAAUAUUACGAACG
- self-splicing fitness (ln) (30 °C): -1.18 ± 0.12
- self-splicing fitness (ln) (37 °C): 0.475 ± 0.17

Sequence: AUGUAGCAAUAUUACGAUCC
- self-splicing fitness (ln) (30 °C): -0.944 ± 0.14
- self-splicing fitness (ln) (37 °C): -0.204 ± 0.15

Sequence: ACGAAGCAAUAUUACGUUUU
- self-splicing fitness (ln) (30 °C): -4.13 ± 0.16
- self-splicing fitness (ln) (37 °C): -1.8 ± 0.11

Sequence: UGUAAGCAAUAUUACGUGGC
- self-splicing fitness (ln) (30 °C): -4.03 ± 0.4
- self-splicing fitness (ln) (37 °C): -2.26 ± 0.37

Sequence: CGGCAGCAAUAUUACGAAAU
- self-splicing fitness (ln) (30 °C): -3.82 ± 0.33
- self-splicing fitness (ln) (37 °C): -2.76 ± 0.33

Sequence: CAGGAGCAAUAUUACGUUUC
- self-splicing fitness (ln) (30 °C): -3.21 ± 0.28
- self-splicing fitness (ln) (37 °C): -3.11 ± 0.38

Sequence: UUCUAGCAAUAUUACGCGCG
- self-splicing fitness (ln) (30 °C): -2.24 ± 0.32
- self-splicing fitness (ln) (37 °C): -1.05 ± 0.18

Sequence: AAGAAGCAAUAUUACGUAAA
- self-splicing fitness (ln) (30 °C): -2.27 ± 0.1
- self-splicing fitness (ln) (37 °C): -1.14 ± 0.14

Sequence: ACGCAGCAAUAUUACGUGCG
- self-splicing fitness (ln) (30 °C): -3.58 ± 0.13
- self-splicing fitness (ln) (37 °C): -2.85 ± 0.15

Sequence: AUUGAGCAAUAUUACGGACG
- self-splicing fitness (ln) (30 °C): -2.11 ± 0.3
- self-splicing fitness (ln) (37 °C): -1.96 ± 0.32

Sequence: AUCUAGCAAUAUUACGGCUG
- self-splicing fitness (ln) (30 °C): -1.21 ± 0.14
- self-splicing fitness (ln) (37 °C): 0.594 ± 0.18

Sequence: UUGGAGCAAUAUUACGGUUA
- self-splicing fitness (ln) (30 °C): -2.08 ± 0.45
- self-splicing fitness (ln) (37 °C): -1.49 ± 0.25

Sequence: GUUCAGCAAUAUUACGCCCU
- self-splicing fitness (ln) (30 °C): -0.106 ± 0.16
- self-splicing fitness (ln) (37 °C): 0.232 ± 0.19

Sequence: AGUAAGCAAUAUUACGGAUC
- self-splicing fitness (ln) (30 °C): -1.39 ± 0.12
- self-splicing fitness (ln) (37 °C): -1.31 ± 0.1

Sequence: GGCAAGCAAUAUUACGCUUU
- self-splicing fitness (ln) (30 °C): -1.58 ± 0.12
- self-splicing fitness (ln) (37 °C): -0.416 ± 0.12

Sequence: CACCAGCAAUAUUACGCAGG
- self-splicing fitness (ln) (30 °C): -3.09 ± 0.1
- self-splicing fitness (ln) (37 °C): -1.64 ± 0.1

Sequence: CACGAGCAAUAUUACGAGUC
- self-splicing fitness (ln) (37 °C): -1.63 ± 0.29

Sequence: GAUGAGCAAUAUUACGGAAA
- self-splicing fitness (ln) (37 °C): -2.2 ± 0.31

Sequence: CAUUAGCAAUAUUACGACCA
- self-splicing fitness (ln) (30 °C): -2.56 ± 0.42
- self-splicing fitness (ln) (37 °C): -1.67 ± 0.37

Sequence: UUCAAGCAAUAUUACGGUUC
- self-splicing fitness (ln) (30 °C): -4.02 ± 0.32
- self-splicing fitness (ln) (37 °C): -2.78 ± 0.48

Sequence: GAGCAGCAAUAUUACGAUCC
- self-splicing fitness (ln) (30 °C): -2.45 ± 0.19
- self-splicing fitness (ln) (37 °C): -0.494 ± 0.17

Sequence: GCUUAGCAAUAUUACGUAUU
- self-splicing fitness (ln) (30 °C): -0.48 ± 0.12
- self-splicing fitness (ln) (37 °C): 0.669 ± 0.15

Sequence: UCCUAGCAAUAUUACGGCGA
- self-splicing fitness (ln) (30 °C): -0.128 ± 0.092
- self-splicing fitness (ln) (37 °C): 0.153 ± 0.1

Sequence: AGAUAGCAAUAUUACGCCAC
- self-splicing fitness (ln) (37 °C): -2.5 ± 0.35

Sequence: CGCAAGCAAUAUUACGUGAG
- self-splicing fitness (ln) (30 °C): -2.69 ± 0.13
- self-splicing fitness (ln) (37 °C): -2.15 ± 0.13

Sequence: GAGCAGCAAUAUUACGGGGA
- self-splicing fitness (ln) (30 °C): -2.84 ± 0.21
- self-splicing fitness (ln) (37 °C): -2.05 ± 0.14

Sequence: AACGAGCAAUAUUACGUCGU
- self-splicing fitness (ln) (30 °C): -2.5 ± 0.23
- self-splicing fitness (ln) (37 °C): -2.9 ± 0.31

Sequence: UCGAAGCAAUAUUACGCAGC
- self-splicing fitness (ln) (30 °C): -2.71 ± 0.27
- self-splicing fitness (ln) (37 °C): -2.18 ± 0.23

Sequence: AUAUAGCAAUAUUACGAUUG
- self-splicing fitness (ln) (30 °C): -2.96 ± 0.18
- self-splicing fitness (ln) (37 °C): -3.2 ± 0.4

Sequence: UUUGAGCAAUAUUACGAGGG
- self-splicing fitness (ln) (30 °C): -3.32 ± 0.32
- self-splicing fitness (ln) (37 °C): -0.691 ± 0.24

Sequence: GCUCAGCAAUAUUACGCGCU
- self-splicing fitness (ln) (30 °C): -1.42 ± 0.11
- self-splicing fitness (ln) (37 °C): -0.545 ± 0.14

Sequence: GACAAGCAAUAUUACGUGCU
- self-splicing fitness (ln) (30 °C): -2.93 ± 0.082
- self-splicing fitness (ln) (37 °C): -1.82 ± 0.078

Sequence: AGGUAGCAAUAUUACGGCGU
- self-splicing fitness (ln) (30 °C): -0.0406 ± 0.013
- self-splicing fitness (ln) (37 °C): 0.231 ± 0.033

Sequence: AAACAGCAAUAUUACGUUGA
- self-splicing fitness (ln) (30 °C): -2.58 ± 0.094
- self-splicing fitness (ln) (37 °C): -1.23 ± 0.089

Sequence: UAAUAGCAAUAUUACGCCAC
- self-splicing fitness (ln) (30 °C): -1.32 ± 0.19
- self-splicing fitness (ln) (37 °C): -1.89 ± 0.44

Sequence: UACCAGCAAUAUUACGAAAC
- self-splicing fitness (ln) (30 °C): -2.69 ± 0.23
- self-splicing fitness (ln) (37 °C): -2.14 ± 0.27

Sequence: GAUGAGCAAUAUUACGAACA
- self-splicing fitness (ln) (30 °C): -3.07 ± 0.47
- self-splicing fitness (ln) (37 °C): -1.54 ± 0.24

Sequence: AUAUAGCAAUAUUACGUGGU
- self-splicing fitness (ln) (30 °C): -2.88 ± 0.19
- self-splicing fitness (ln) (37 °C): -1.54 ± 0.29

Sequence: CUACAGCAAUAUUACGCUUG
- self-splicing fitness (ln) (30 °C): -2.37 ± 0.15
- self-splicing fitness (ln) (37 °C): -2.26 ± 0.16

Sequence: GGGAAGCAAUAUUACGACUG
- self-splicing fitness (ln) (30 °C): -0.222 ± 0.088
- self-splicing fitness (ln) (37 °C): -0.457 ± 0.11

Sequence: CGCAAGCAAUAUUACGCCAA
- self-splicing fitness (ln) (30 °C): -2.12 ± 0.27
- self-splicing fitness (ln) (37 °C): -3.03 ± 0.35

Sequence: CGUGAGCAAUAUUACGAGCC
- self-splicing fitness (ln) (37 °C): -1.35 ± 0.41

Sequence: GCCGAGCAAUAUUACGCACU
- self-splicing fitness (ln) (30 °C): -1.64 ± 0.11
- self-splicing fitness (ln) (37 °C): -0.365 ± 0.13

Sequence: UAAGAGCAAUAUUACGGUCA
- self-splicing fitness (ln) (30 °C): -1.77 ± 0.18
- self-splicing fitness (ln) (37 °C): -2.52 ± 0.17

Sequence: UCCAAGCAAUAUUACGUAUU
- self-splicing fitness (ln) (30 °C): -3.44 ± 0.19
- self-splicing fitness (ln) (37 °C): -2.46 ± 0.21

Sequence: AAAGAGCAAUAUUACGCAAU
- self-splicing fitness (ln) (30 °C): -3.59 ± 0.21
- self-splicing fitness (ln) (37 °C): -1.65 ± 0.16

Sequence: UCGCAGCAAUAUUACGGAGA
- self-splicing fitness (ln) (30 °C): -2.75 ± 0.13
- self-splicing fitness (ln) (37 °C): -1.02 ± 0.1
